Fold diff data for one molecule are collected here from US20220332804A1 (CSL INNOVATION, published 2022).

Numbering of substitutions follows the chain as printed.

Experiment in all cases: SPR, KD relative to WT C2;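 also: biacore SPR at 37 °C, anti-C2 mAbs captured via immobilised goat anti-human IgG, C2 alanine or serine surface mutants as analytes, 1:1 model fitted, double-referenced sensograms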
Background: In SPR one partner is held on a chip, and binding of the other changes the refractive index at the surface.

For assay [1], the target named is T1, human C2 S473A (human, UniProt P06681 21-752).
T1 sequence: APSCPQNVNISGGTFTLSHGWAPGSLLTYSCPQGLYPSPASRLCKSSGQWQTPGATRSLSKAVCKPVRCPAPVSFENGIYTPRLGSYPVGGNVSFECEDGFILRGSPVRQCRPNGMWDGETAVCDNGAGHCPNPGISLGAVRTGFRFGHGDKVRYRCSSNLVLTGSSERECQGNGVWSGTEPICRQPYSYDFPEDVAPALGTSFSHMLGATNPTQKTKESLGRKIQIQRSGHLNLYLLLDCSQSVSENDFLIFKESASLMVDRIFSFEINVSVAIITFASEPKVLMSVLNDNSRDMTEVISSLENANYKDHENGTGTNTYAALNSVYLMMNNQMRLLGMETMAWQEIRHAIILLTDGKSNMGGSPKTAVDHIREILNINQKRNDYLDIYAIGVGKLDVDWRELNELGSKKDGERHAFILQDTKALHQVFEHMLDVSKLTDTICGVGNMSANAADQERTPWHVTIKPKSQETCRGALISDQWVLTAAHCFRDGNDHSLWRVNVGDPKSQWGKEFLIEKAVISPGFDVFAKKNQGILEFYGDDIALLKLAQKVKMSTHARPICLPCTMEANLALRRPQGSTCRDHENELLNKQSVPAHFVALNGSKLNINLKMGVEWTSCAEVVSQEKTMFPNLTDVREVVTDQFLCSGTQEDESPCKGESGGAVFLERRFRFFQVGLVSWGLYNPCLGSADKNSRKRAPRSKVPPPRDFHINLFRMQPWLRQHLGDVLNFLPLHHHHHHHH

In assay [2] the target is T2, human C2 T647A (human, UniProt P06681 21-752).
T2 sequence: T1 sequence with A453S, T627A

Assay [3] deals with T3, human C2 V722A (human, UniProt P06681 21-752).
T3 sequence: T1 sequence with A453S, V702A

The target in assay [4] is T4, human C2 K485A (human, UniProt P06681 21-752).
T4 sequence: T1 sequence with A453S, K465A

B1: RF16-226 (antibody, human IgG4 S228P, lambda)
heavy: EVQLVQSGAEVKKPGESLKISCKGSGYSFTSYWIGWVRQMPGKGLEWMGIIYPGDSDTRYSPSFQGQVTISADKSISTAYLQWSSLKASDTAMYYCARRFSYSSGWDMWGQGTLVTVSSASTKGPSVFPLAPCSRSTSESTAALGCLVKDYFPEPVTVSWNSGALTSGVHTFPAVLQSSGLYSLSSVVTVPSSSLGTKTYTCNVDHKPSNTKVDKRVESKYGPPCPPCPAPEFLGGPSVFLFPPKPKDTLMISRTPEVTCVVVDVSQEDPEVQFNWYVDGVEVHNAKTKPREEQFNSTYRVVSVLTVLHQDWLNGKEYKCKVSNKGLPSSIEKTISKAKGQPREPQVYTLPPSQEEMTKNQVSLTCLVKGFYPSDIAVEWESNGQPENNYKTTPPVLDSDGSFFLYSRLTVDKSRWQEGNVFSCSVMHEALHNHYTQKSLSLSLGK
light: SYELTQPPSVSVSPGQTARITCSGDALTSKYVAWYQQKSGLAPLLVIYEDTRRPSGIPAKFSGSSSGSVATLTISGAHGDDEADYYCYSTDASGHQRVFGGGTKLTVLSQPKAAPSVTLFPPSSEELQANKATLVCLISDFYPGAVTVAWKADGSPVKAGVETTKPSKQSNNKYAASSYLSLTPEQWKSHRSYSCQVTHEGSTVEKTVAPTECS
notes: pH-dependent anti-C2 antibody from a phage display library; also called WT
Consider B1, for which the Fold diff in assay [1] turned out to be 1 fold; in assay [2], 15 fold; in assay [3], 10 fold; in assay [4], 1 fold.
